Reference: patent publication US20260234234A1 (QILU PUGET SOUND BIOTHERAPEUTICS, published 2026)
Where two headings read alike, the source gives them in different places. Values belong to the binder of their own block, whether it stands above or below them.

Legend:
[1] = target: T1, His6-tagged cyIL-33 (Ser112-Ile270), QB10976 (cynomolgus monkey); assay: cell-based or functional assay
T1 chain: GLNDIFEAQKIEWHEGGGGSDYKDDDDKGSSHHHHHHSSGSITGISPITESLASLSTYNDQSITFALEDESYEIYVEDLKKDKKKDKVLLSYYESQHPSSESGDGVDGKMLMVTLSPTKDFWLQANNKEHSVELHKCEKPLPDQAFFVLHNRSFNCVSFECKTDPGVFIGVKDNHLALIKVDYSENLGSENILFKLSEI

[2] = target: T2, hIL-33 used in the cell-based assays of Example 13 (human, UniProt O95760 112-270); assay: cell-based or functional assay
T2 sequence (looked up): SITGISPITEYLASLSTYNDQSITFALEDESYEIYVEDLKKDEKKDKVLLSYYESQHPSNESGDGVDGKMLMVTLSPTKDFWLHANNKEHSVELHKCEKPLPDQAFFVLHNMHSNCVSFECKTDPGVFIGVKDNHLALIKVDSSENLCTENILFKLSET

[3] = target: T1, His6-tagged cyIL-33 (Ser112-Ile270), …; assay: SPR, cyIL-33 analyte
[4] = target: T3, Avitag_c-MYC_His6-tagged hIL-33 (Ser112-Thr270), QB10975 (human); assay: SPR, captured antibody, hIL-33 analyte, 37 C, 1:1 fit
T3 construct: Entry includes N-terminal Avitag, c-MYC and His6 tags; reduced with DTT to the active form; also called active hIL-33; reduced hIL-33
T3 chain: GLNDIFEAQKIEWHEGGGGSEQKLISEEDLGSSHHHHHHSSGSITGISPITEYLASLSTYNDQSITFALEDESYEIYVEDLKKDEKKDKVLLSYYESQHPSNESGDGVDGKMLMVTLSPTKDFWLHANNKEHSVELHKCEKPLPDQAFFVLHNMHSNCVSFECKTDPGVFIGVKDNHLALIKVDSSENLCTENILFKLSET

[5] = target: T1, His6-tagged cyIL-33 (Ser112-Ile270), …; assay: SPR, captured antibody, cyIL-33 analyte, 25 C, 1:1 fit
[6] = target: hTSLP antigen, version not stated (human, UniProt Q969D9 29-159, limits assumed); assay: cell-based or functional assay
[7] = target: T4, Avitag_c-MYC_His6_hTSLP QB11631 with mutations of R127A + R130S (human); assay: SPR (Biacore), hTSLP (R127A+R130S) antigen
T4 construct: Substitutions and tags already in the entry; also called hTSLP (R127A+R130S)

[8] = target: T4, Avitag_c-MYC_His6_hTSLP QB11631 with …; assay: SPR (Biacore)
[9] = target: T5, cyTSLP antigen, version not stated (cynomolgus monkey, UniProt A0A7N9CAT7 29-159); assay: SPR (Biacore)
T5 construct: Used where the text only says cyTSLP

[10] = target: T3, Avitag_c-MYC_His6-tagged hIL-33 …; assay: SPR competition, antibody titrated against 10 nM hIL-33, over immobilised hST2-Fc
[11] = target: T4, Avitag_c-MYC_His6_hTSLP QB11631 with …; assay: SPR (Biacore), hTSLP (R127A+R130S) antigen; remark: listed apart in the source
[12] = target: T6, Avitag_c-MYC_His6_hTSLP QB11033 with deletion of 126KRRKR130 (human); assay: cell-based or functional assay
T6 chain: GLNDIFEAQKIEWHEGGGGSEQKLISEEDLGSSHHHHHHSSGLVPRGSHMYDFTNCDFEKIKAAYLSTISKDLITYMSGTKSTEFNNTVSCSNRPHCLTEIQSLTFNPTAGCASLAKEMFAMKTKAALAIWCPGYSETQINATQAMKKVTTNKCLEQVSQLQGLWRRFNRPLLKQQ

[13] = target: T4, Avitag_c-MYC_His6_hTSLP QB11631 with …; assay: cell-based or functional assay
[14] = target: Avitag_c-MYC_His6_hTSLP (wild type) QB11630 (human); assay: cell-based or functional assay
[15] = target: T7, Avitag_FLAG_His6_cyTSLP QB10974 with deletion of 126KRRKR130 (cynomolgus monkey); assay: cell-based or functional assay
T7 chain: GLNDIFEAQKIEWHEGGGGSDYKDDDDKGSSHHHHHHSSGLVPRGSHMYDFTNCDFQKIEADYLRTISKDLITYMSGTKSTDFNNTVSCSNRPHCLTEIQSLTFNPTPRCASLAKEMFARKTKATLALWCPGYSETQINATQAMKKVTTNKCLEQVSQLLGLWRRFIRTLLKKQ

[16] = target: T8, Avitag_FLAG_His6_cyTSLP QB11632 (wild type) (cynomolgus monkey); assay: cell-based or functional assay
T8 chain: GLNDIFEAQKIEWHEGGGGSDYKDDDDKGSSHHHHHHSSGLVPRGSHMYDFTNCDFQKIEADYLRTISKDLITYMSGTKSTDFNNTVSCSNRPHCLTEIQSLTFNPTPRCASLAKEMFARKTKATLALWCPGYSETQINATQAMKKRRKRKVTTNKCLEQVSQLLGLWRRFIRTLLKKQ

[17] = target: T9, Avitag_FLAG_His6_cyTSLP QB11633 with mutations of R127A + R130S (cynomolgus monkey); assay: cell-based or functional assay
T9 chain: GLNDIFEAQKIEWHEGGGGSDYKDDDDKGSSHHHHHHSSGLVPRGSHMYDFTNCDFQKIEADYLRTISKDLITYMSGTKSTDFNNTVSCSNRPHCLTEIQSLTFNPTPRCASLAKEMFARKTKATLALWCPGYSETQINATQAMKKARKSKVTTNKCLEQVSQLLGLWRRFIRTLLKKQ

[18] = target: T7, Avitag_FLAG_His6_cyTSLP QB10974 with …; assay: cell-based or functional assay
[19] = target: T8, Avitag_FLAG_His6_cyTSLP QB11632 (wild …); assay: cell-based or functional assay
[20] = target: T9, Avitag_FLAG_His6_cyTSLP QB11633 with …; assay: cell-based or functional assay
[21] = target: T6, Avitag_c-MYC_His6_hTSLP QB11033 with …; assay: cell-based or functional assay
[22] = target: T4, Avitag_c-MYC_His6_hTSLP QB11631 with …; assay: cell-based or functional assay; remark: listed apart in the source
[23] = target: Avitag_c-MYC_His6_hTSLP (wild type) QB11630 (human); assay: cell-based or functional assay; remark: listed apart in the source

B1: anti-hIL-33 IgG4 antibody QB11465 (antibody)
heavy: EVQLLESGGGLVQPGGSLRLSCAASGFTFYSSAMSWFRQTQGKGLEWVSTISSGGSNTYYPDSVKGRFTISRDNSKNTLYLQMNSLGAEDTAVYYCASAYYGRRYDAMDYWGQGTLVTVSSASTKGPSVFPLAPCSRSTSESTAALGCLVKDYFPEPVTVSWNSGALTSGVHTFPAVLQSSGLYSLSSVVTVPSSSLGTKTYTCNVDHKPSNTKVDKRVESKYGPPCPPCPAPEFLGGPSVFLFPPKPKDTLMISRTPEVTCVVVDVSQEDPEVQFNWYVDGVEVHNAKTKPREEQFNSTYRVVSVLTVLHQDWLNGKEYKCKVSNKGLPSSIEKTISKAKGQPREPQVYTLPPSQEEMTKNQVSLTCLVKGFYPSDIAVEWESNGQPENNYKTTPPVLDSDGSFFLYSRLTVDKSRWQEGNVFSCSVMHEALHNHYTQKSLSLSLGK
light: DVVMTQSPPSLPVTLGQSASISCKSSESLLHSNANTYLYWFQQRPGQSPQLLIYRGSNLASGVPDRFSGSGSGTDFTLKISRVEAEDVGVYYCMQHLRNPYTFGQGTKVEIKRTVAAPSVFIFPPSDEQLKSGTASVVCLLNNFYPREAKVQWKVDNALQSGNSQESVTEQDSKDSTYSLSSTLTLSKADYEKHKVYACEVTHQGLSSPVTKSFNRGEC
notes: also called lead anti-hIL-33 IgG4 antibody
IC50, inhibition of cyIL-33-induced p38 MAPK phosphorylation in ILC2s (FIG. 17D) [1]: 4.4 nM
IC50, inhibition of hIL-33-induced IFNγ secretion from primary human NK cells [2]: 1 nM
IC50, inhibition of hIL-33-induced hIL-5 secretion from primary human ILC2 cells [2]: 2.39 nM
IC50, inhibition of hIL-33-induced p38 MAPK phosphorylation in ILC2s (FIG. 17C) [2]: 0.33 nM
IC50, inhibition of hIL-33-induced p38 MAPK phosphorylation in ILC2s (FIG. 17D) [2]: 0.82 nM
fold improvement of affinity against parental antibody QB11119 [3]: ~3 fold
Kd [4]: 0.209 nM
koff [4]: 0.000695 s⁻¹
kon [4]: 3.33e+06 M⁻¹ s⁻¹
Kd [5]: 5.14 nM
koff [5]: 0.00191 s⁻¹
kon [5]: 371000 M⁻¹ s⁻¹

B4: humanized anti-hIL-33 antibody QB11004 (antibody, human IgG1, kappa, V domains shown)
VH: EVQLLESGGGLVQPGGSLRLSCAASGFTFYSSAMSWVRQTQGKGLEWVSTISSGGSNTYYPDSVKGRFTISRDNSKNTLYLQMNSLGAEDTAVYYCASAYYGRRYDAMDYWGQGTLVTVSS
VL: DVVMTQSPPSLPVTLGQSASISCKSSKSLLHSNGNTYLYWFQQRPGQSPQLLIYRMSNLASGVPDRFSGSGSGTDFTLKISRVEAEDVGVYYCMQHLENPYTFGQGTKVEIKR
IC50 [10]: 0.927 nM
Kd [4]: 0.387 nM
koff [4]: 0.000628 s⁻¹
kon [4]: 1.62e+06 M⁻¹ s⁻¹
Kd [5]: 6.22 nM
koff [5]: 0.000992 s⁻¹
kon [5]: 160000 M⁻¹ s⁻¹

B5: anti-hIL-33 antibody QB11119 (antibody, human IgG1, kappa, L234A L235A, V domains shown)
VH: EVQLLESGGGLVQPGGSLRLSCAASGFTFYSSAMSWVRQTQGKGLEWVSTISSGGSNTYYPDSVKGRFTISRDNSKNTLYLQMNSLGAEDTAVYYCASAYYGRRYDAMDYWGQGTLVTVSS
VL: DVVMTQSPPSLPVTLGQSASISCKSSKSLLHSNANTYLYWFQQRPGQSPQLLIYRMSNLASGVPDRFSGSGSGTDFTLKISRVEAEDVGVYYCMQHLENPYTFGQGTKVEIKR
notes: hIgG1 with L234A+L235A+P329A; G29A in the VL against QB11061; also called parental antibody QB11119
Kd [4]: 0.397 nM
koff [4]: 0.000604 s⁻¹
kon [4]: 1.52e+06 M⁻¹ s⁻¹
Kd [5]: 15.8 nM
koff [5]: 0.00206 s⁻¹
kon [5]: 131000 M⁻¹ s⁻¹

B7: anti-hTSLP antibody QB11341, humanized clone 135F1 (antibody, human IgG4 S228P, kappa, V domains shown)
VH: EVQLVESGGGLVQPGGSLRLSCAASGFDFSSYWISWVRQAPGKGPEWIASIDIDIDIADYASWAKGRFTISRDNSKNTLYLQMNSLRAEDTAVYYCVRNLGLWGPGTLVTVSS
VL: DIQMTQSPSSLSASVGDRVTITCQSSQNVYDKDALAWYQHKPGKRPKLLIYEASKLASGVPSRFSGSGSGTHFTLTISSLQPEDAATYYCAGTFIDNIYTFGGGTKVEIKR
notes: also called QB1341; top clone
Kd [11]: 1.76 nM
koff [11]: 0.00148 s⁻¹
kon [11]: 842000 M⁻¹ s⁻¹
fold lower binding affinity against comparator antibody QB10985 [8]: ~10 fold
IC50 (nM) for inhibition of CCL17 secretion [12]: 0.361 nM
IC50 (nM) for inhibition of CCL17 secretion [13]: 0.626 nM
IC50 (nM) for inhibition of CCL17 secretion [14]: 0.333 nM
IC50 (nM) for inhibition of CCL17 secretion [15]: 0.712 nM
IC50 (nM) for inhibition of CCL17 secretion [16]: 0.888 nM
IC50 (nM) for inhibition of CCL17 secretion [17]: 0.93 nM

Further lines, results first:

IC50, inhibition of hTSLP-induced CCL17 release from human monocytes [6]: 4.24 nM
B2: rabbit anti-hTSLP monoclonal antibody clone 135F1 (antibody, V domains shown)
VH: QEQLEESGGDLVKPEGSLTLTCKASGFDFSSYWISWVRQAPGKRPEWIACIDSDIDSADYASWAKGRFTMSRTSSTTVTLQMTSLTAADTATYFCVRNLGLWGPGTLVTVSS
VL: AQVLTQTASPVSAAVGGTVTINCQSSQNVYDKDALAWYQHKPGQRPKLLIYEASKLASGVPSRFSGSGAGTQFTLTISGVQCDDAATYYCAGTFIDNIYTFGGGTEVVVKG

Kd [7]: 1.62 nM
koff [7]: 0.000852 s⁻¹
kon [7]: 527000 M⁻¹ s⁻¹
fold lower binding affinity against comparator QB10985 [8]: 8.8 fold
fold binding difference between hTSLP and cyTSLP [9]: < 10 fold
B3: anti-hTSLP QB11060, humanized antibody clone hz-3C-V6 (antibody, human IgG4 S228P, kappa, V domains shown)
VH: QVQLVQSGPEVKKPGSSVKVSCKASGYIFTDYAMHWVRQRPGQGLEWMGTFIPLLDTSDYNQNFKGRATITADKSTSTAYMELSSLRSEDTAVYYCARMGVTHSYVMDAWGQGTLVTVSS
VL: EIVLTQSPGTLSLSPGERATLSCRASQPISISVHWYQQKPGEAPRLLIYFASQSISGIPDRFSGSGSGTDFTLTISRLESEDFAVYYCQQTFSLPYTFGTGTKVEIKR
notes: hz-3C with D9P + S108L in the VH

Kd [4]: 0.306 nM
koff [4]: 0.000567 s⁻¹
kon [4]: 1.85e+06 M⁻¹ s⁻¹
Kd [5]: 4.75 nM
koff [5]: 0.000893 s⁻¹
kon [5]: 188000 M⁻¹ s⁻¹
B6: anti-hIL-33 antibody QB11061 (antibody, human IgG1, kappa, V domains shown)
VH: EVQLLESGGGLVQPGGSLRLSCAASGFTFYSSAMSWVRQTPGKGLEWVSTISSGGSNTYYPDSVKGRFTISRDNSKNTLYLQMNSLGAEDTAVYYCASAYYGRRYDAMDYWGQGTLVTVSS
VL: DVVMTQSPPSLPVTLGQSASISCKSSKSLLHSNGNTYLYWFQQRPGQSPQLLIYRMSNLASGVPDRFSGSGSGTDFTLKISRVEAEDVGVYYCMQHLENPYTFGQGTKVEIKR
notes: QB11004 with Q41P in VH-FW2

IC50 (nM) for inhibition of CCL17 secretion [18]: 0.251 nM
IC50 (nM) for inhibition of CCL17 secretion [19]: 0.254 nM
IC50 (nM) for inhibition of CCL17 secretion [20]: 0.464 nM
IC50 (nM) for inhibition of CCL17 secretion [21]: 0.0921 nM
IC50 (nM) for inhibition of CCL17 secretion [22]: 0.286 nM
IC50 (nM) for inhibition of CCL17 secretion [23]: 0.0757 nM
B8: anti-hTSLP antibody QB11548, humanized clone 135F1 after yeast display (antibody, human IgG4 S228P, kappa, V domains shown)
VH: EVQLVESGGGLVQPGGSLRLSCAASGFDFSSYWISWVRQAPGKGPEWIASIDIDIDIADYASWAKGRFTISRDNSKNTLYLQMNSLRAEDTAVYYCVRNLGLWGPGTLVTVSS
VL: DIQMTQSPSSLSASVGDRVTITCQSSQNVYDKDALAWYQHKPGKRPKLLIYEASRLASGVPSRFSGSGSGTHFTLTISSLQPEDAATYYCAGTRIDNIYTFGGGTKVEIKR
